Measured values published in patent publication US8691225B2, “Antibodies against the ectodomain of ErbB3 and uses thereof” (Merrimack Pharmaceuticals, Inc., priority 2007, dated 2014).

Columns and labels:
ErbB3 in AdrR xenografts = molecular target: T1, ErbB3 in AdrR xenografts (Homo sapiens, UniProt P21860); experiment: total ErbB3 in AdrR xenografts in vivo by ELISA; parameters: species or system mouse
T1 construct: host or cells: AdrR (NCI/AdrR) ovarian cancer cells
Description: Briefly, the samples were pulverized in a cryopulverizer (Covaris Inc). Tumors were stored in special bags (pre-weighed before the addition of the tumor) and placed in liquid nitrogen while handling them. For small tumors, 200 μL of Lysis buffer was first added to the bag with the tumor, frozen in liquid nitrogen and then pulverized to improve the recovery of the tumor from the bag. Pulverized tumors were transferred to 2 ml EPPENDORF tubes and placed in liquid nitrogen until lysed. Tumors were lysed in Lysis buffer supplemented with protease and phosphatase inhibitors. Lysis Buffer was added to the tumor aliquots in a final concentration of 62.5 mg/ml. Tumor samples were homogenized by vortexing for 30 seconds and letting them sit on ice for 30 min. The lysates were spun for 10 minutes in QIAGEN […] columns for further homogenization of the samples. Cleared lysates were aliquoted into fresh tubes.
The BCA assay is performed as set forth substantially as described in the materials and methods section supra.
The total levels of ErbB3 were determined by ELISA. The ELISA reagents were purchased from R&D Systems as DUOSET kits. […] Fifty microliters of SUPERSIGNAL ELISA Pico substrate was added and readout was performed on a Fusion plate reader. Data was analyzed using Microsoft EXCEL. […]

TGF-α = TGF-α (Homo sapiens, UniProt P01135); experiment: binding specificity ELISA; conditions: IgG2 isotype of Ab #6
Description: (§1) 96-well NUNC MAXISORB plates are coated by overnight incubation at room temperature with 50 μl/well of 5 μg/ml of individual proteins. The proteins are recombinant human EGFR ectodomain, BSA, recombinant human ErbB3 ectodomain and TGF-α. The next morning, plates are washed 3 times with […] of PBST (0.05% Tween-20) in the BIOTEK plate washer. The wells are blocked for 1 hr at room temperature with 2% BSA in PBS and washed again as before. […] All samples are run in duplicate and incubated for 2 hrs at 4° C. on a plate shaker. The plates are washed again as before. 50 μl of human IgG-Fc detection antibody (HRP conjugated, Bethyl Laboratories, Inc; 1:75000 dilution in 2% BSA, PBST) is added and the plates are incubated for 1 hr at room temperature. The plates are washed again as before. 50 μL of SUPERSIGNAL ELISA Pico substrate is added and the plate is read on the FUSION plate reader (Packard/Perkin Elmer). The data is analyzed using the EXCEL program. Duplicate samples are averaged and the error bars represent the standard deviation between the two replicates.

[1] = molecular target: T2, recombinant human ErbB3 ectodomain (Homo sapiens, UniProt P21860); experiment: binding specificity ELISA; conditions: IgG2 isotype of Ab #6
T2 construct: recombinant human ErbB3 ectodomain
Description: as §1

[2] = molecular target: T3, recombinant human EGFR ectodomain (Homo sapiens, UniProt P00533); experiment: binding specificity ELISA; conditions: IgG2 isotype of Ab #6
T3 construct: recombinant human EGFR ectodomain
Description: as §1

[3] = tested on: Colo357 (pancreatic) xenograft; experiment: xenograft tumor growth in nude mice; type: in vivo, mouse
ErbB3 [4] = molecular target: T4, ErbB3 (Homo sapiens, UniProt P21860); experiment: Kinetic Exclusion Assay (KinExA); type: binding
ErbB3 [5] = molecular target: T4, ErbB3; experiment: Surface Plasmon Resonance Assay; type: binding
[6] = tested on: ACHN (a renal tumor cell line) xenograft tumors; experiment: ACHN xenograft combination therapy; type: in vivo, mouse; conditions: Ab #6 300 μg IP every three days; erlotinib 25 mg/kg orally once daily
Description: In a first experiment, mice bearing ACHN (a renal tumor cell line) xenograft tumors are prepared by establishing tumors subcutaneously in the flanks of nude mice (Charles River Laboratories).

[7] = molecular target: T5, ErbB3 in MALME-3M xenografts (Homo sapiens, UniProt P21860); experiment: total ErbB3 in MALME-3M xenografts in vivo; parameters: species or system mouse; conditions: MALME-3M xenograft, 24 hours post-injection, IgG1 or IgG2 isotype
T5 construct: ErbB3 expressed on MALME-3M melanoma cells; host or cells: MALME-3M melanoma cells
Description: T-cell deficient nu/nu mice (3-4 week old female mice originated at NIH; outbred; albino background) were purchased from Charles River Labs (Wilmington, Mass.). MALME-3M cells for implantation were grown in culture (RPMI media, 10% FBS, L-glutamine and antibiotics, 37° C., 5% CO2) to about 80% confluency before harvesting. Cells were kept on ice until implantation.
The tumors were measured (length by width) by digital caliper and the mice were pretreated with murine IgG2a (Sigma, M7769—5 mg) by intravenous injection to block in vivo depletion of tested antibodies by murine Fc receptors.
Final tumor measurements (L×W) were taken, the mice were euthanized by CO2 asphyxiation and tumors were excised, snap frozen in liquid nitrogen, and were stored at −80° C. (for biochemical analysis). Final tumor measurements were analyzed and graphed by tumor area and tumor volume as described, for example, in Burtrum et al., (2003) Cancer Res., 63:8912-8921. The data was also analyzed by “normalized” and “non-normalized” means for both tumor volume and tumor area. For the “normalization” of the data, at each time point of measurement, each tumor in each group was divided by the initial tumor size determined by caliper measurement.

B1: Ab #6: human anti-ErbB3 antibody from Fab-phage library, CDRs SEQ ID NOs:7-12; used as IgG1 and IgG2 isotypes; in phase I trials as MM-121 (antibody, V domains shown)
VH: EVQLLESGGGLVQPGGSLRLSCAASGFTFSHYVMAWVRQAPGKGLEWVSSISSSGGWTLYADSVKGRFTISRDNSKNTLYLQMNSLRAEDTAVYYCTRGLKMATIFDYWGQGTLVTVSS
VL: QSALTQPASVSGSPGQSITISCTGTSSDVGSYNVVSWYQQHPGKAPKLIIYEVSQRPSGVSNRFSGSKSGNTASLTISGLQTEDEADYYCCSYAGSSIFVIFGGGTKVTVL
downregulation of ErbB3 in xenografts (ErbB3 in AdrR xenografts): downregulated ErbB3
binding in ELISA (TGF-α): did not show any appreciable binding
binding in ELISA [1]: bound recombinant ErbB3
binding in ELISA [2]: did not show any appreciable binding
inhibition of tumor growth ([3]; 300 ug every three days (Q3d), p<0.05): significant inhibition of tumor growth
inhibition of tumor growth ([3]; 600 ug Q3d versus 300 ug): further elevated
inhibition of tumor growth ([3]; 1500 ug Q3d versus 600 ug): did not result in increased efficacy
dissociation rate (ErbB3 [4]): 0.00011 s⁻¹
competition with HRG for binding to ErbB3 (ErbB3 [5]): competes with HRG for binding to ErbB3
inhibition of tumor growth (tumor volume) [6]: inhibit tumor growth
downregulation of total ErbB3 in xenograft tumors [7]: significant downregulation of total ErbB3
